Results published in paper PMC6258952, “Visualization of Calcium Ion Loss from Rotavirus during Cell Entry” (Journal of Virology, 2018).

B1: Atto 488 NHS ester-labeled VP7 (natural protein)
chain: QNYGINLPITGSMDTAYANSTQEETFLTSTLCLYYPTEAATEINDNSWKDTLSQLFLTKGWPTGSVYFKEYTDIASFSVDPQLYCDYNVVLMKYDATLQLDMSELADLILNEWLCNPMDITLYYYQQTDEANKWISMGSSCTIKVCPLNTQTLGIGCLTTDTATFEEVATAEKLVITDVVDGVNHKLDVTTATCTIRNCKKLGPRENVAVIQVGGSDVLDITADPTTAPQTERMMRINWKKWWQVFYTVVDYVNQIIQAMSKRSRSLNSAAFYYRI
modifications: Atto 488 NHS ester (residues not stated)
notes: VP7, Ca2+-stabilized outer layer protein of rhesus rotavirus (RRV); also called VP7-488

Experiments:
[1] = target: VP5 CT fragment from sequential chymotrypsin-trypsin digestion of VP4 Rhod5F (rhesus rotavirus (RRV)); experiment: SDS-PAGE of unboiled and boiled samples; VP4 469C-Rhod5F digested with chymotrypsin (37°C, 30 min) then trypsin (room temperature, 1 h); reducing sample buffer (200 mM DTT), boiled at 95°C for 3 min or kept at room temperature for 3 min; 5-to-20% gradient gel, UV light and Coomassie blue
[2] = target: T1, wild-type recombinant VP4 labeled with Atto 565 NHS ester (rhesus rotavirus (RRV), UniProt P12473 1-776, Atto 565 NHS ester, about 1 dye molecule per VP4 monomer (residues not stated)); experiment: co-sedimentation; recoating of labeled DLP: 100 mM sodium acetate pH 5.2, VP4 at 0.9 mg/ml (~33-fold excess) 1 h at room temperature, then VP7 in 2.3-fold excess with 1 mM CaCl2 for 1 h; recoated particles separated from excess components by cesium chloride gradient centrifugation; dyes seen on single particles by confocal imaging; details: both partners purified
T1 construct: VP4, outer layer spike protein of rhesus rotavirus (RRV), wild type; also called VP4-565; rVP4; source: Sf9 cells infected with a baculovirus vector, purified (ammonium sulfate, Phenyl HP, HiTrap Q, S200)

[3] = target: T2, wild-type recombinant VP4 labeled with pHrodo Red succinimidyl ester (rhesus rotavirus (RRV), UniProt P12473 1-776, pHrodo Red succinimidyl ester, 1 dye molecule per 2 VP4 monomers (residues not stated)); experiment: as above; details: both partners purified
T2 construct: VP4, outer layer spike protein of rhesus rotavirus (RRV), wild type; also called VP4-pHrodo Red; wt VP4; source: Sf9 cells infected with a baculovirus vector, purified (ammonium sulfate, Phenyl HP, HiTrap Q, S200)

[4] = target: T3, VP4 mutated at position 469 from serine to cysteine (rhesus rotavirus (RRV), UniProt P12473 1-776, S469C); experiment: as above; details: both partners purified
T3 construct: VP4, outer layer spike protein of rhesus rotavirus (RRV), with S469C; Unlabeled during recoating; It was labeled on the purified rcTLP afterwards with DBCO-maleimide and Rhod5F azide; also called VP4 469C; S469C; source: Sf9 cells infected with a baculovirus vector, purified (ammonium sulfate, Phenyl HP, HiTrap Q, S200)

| Molecule | stoichiometry N [1] | binding result [2] | binding result [3] | binding result [4] |
| --- | --- | --- | --- | --- |
| VP5 CT fragment from sequential chymotrypsin-trypsin digestion of VP4 Rhod5F (domain or fragment) | 3 |  |  |  |
| B1 |  | binds | binds | binds |
